Reference: patent US20210277090A1

Target: trypsin
Assay: cell-based or functional assay

“recombinant ulinastatin polypeptide (T17); mature human ulinastatin with S10A mutation, N-linked glycan at N45 and O-linked glycan at T17 (from UniProt P02760 206-352)” was tested, and the specific activity of the sample (units of trypsin inhibition) was 5000 U/mg.
